Test results from article PMC6104945, “Structures of NHBA elucidate a broadly conserved epitope identified by a vaccine induced antibody” (PLoS ONE, 2018).

Target: T1, FL NHBA variant p3 (strain MC58) (Neisseria meningitidis MC58, UniProt Q7DD37, strain)
T1 construct: also called NHBAp3 (MC58); source: recombinant, purified protein antigen
Assay: SPR; single-cycle kinetics, Biacore T200, 25°C; Fab 5H2 (~800-1100 RU) captured by anti-human Fab antibodies on CM5; NHBA antigen injected at 3.125-50 nM, 30 uL/min; HBS-EP pH 7.4; 1:1 Langmuir model with mass transfer term; triplicate
Conditions: both partners purified

B1: Fab 5H2 (Fab derived from the vaccine-elicited human monoclonal antibody 5H2) (Fab, V domains shown)
VH: QVQLQESGPGLVKPSETLSLTCTVSGGSVSSGSSYWTWIRQTPGKGLEWIGYTSYSGSTKYNPSLKSRVTLSVDMSKNQFSLKLKSVTAADTAVYFCARDRFDVASGSSFDFWGQGTLVTVSS
VL: EIVMTQTPSSLSASVGDRVTITCRASQSISNYLNWYQQKPGTAPKLLTYAASSLGSGVPSRFSGSGSGTDLTLTISSLRPEDFATYYCQQSYGSPTFGQGTKLEIR
notes: they are in the structures deposited here: PDB 5NYX chains H, M, O and PDB 5O1R chains H, I (residues Q1-C226 modelled); they are in the structures deposited here: PDB 5NYX chains L, N, P and PDB 5O1R chains L, M (residues E1-E212 modelled); Recombinant Fab; variable region genes synthesised; also called huFab 5H2; source: Expi293 cells, transient transfection, purified from supernatant …
- Kd: 400 pM
